Assay results taken from patent US8734776B2 (ZymoGenetics, Inc., priority 2003, dated 2014).

Columns and labels:
parainfluenza virus = format: cell-based; details: MA-104 cells
HHV-8 = HHV-8 replication in BCBL-1 cells (TaqMan PCR)
[1] = test system: ISG gene expression (OAS, Pkr, Mx1); test: ISG gene induction in liver, spleen and blood of injected mice; format: in vivo, mouse; details: for OAS (24 hr): mice, expression relative to internal HPRT; for OAS- 1 hr: 1 hr after single injection of 250 μg i.v.; for OAS- 1 hr / OAS-6 hr / OAS-24 hr / OAS-48 hr: average of 5 animals; for OAS-6 hr: 6 hr after single injection of 250 μg i.v.; for OAS-24 hr: 24 hr after single injection of 250 μg i.v.; for OAS-48 hr: 48 hr after single injection of 250 μg i.v.
Experimental: In addition, E. coli derived IL-29 was also tested in in vivo assays as described above using MetIL-29C172S-PEG and MetIL-29-PEG. At various time points and at different doses, ISG gene induction was measured in the blood, spleen and livers of the mice.
Mice were sacrificed at various time points (1 hr-48 hr). Spleens and livers were isolated from mice, and RNA was isolated. RNA was also isolated from the blood cells. The cells were pelleted and RNA isolated from pellets using RNAEasy®-kit (Qiagen). RNA was treated with DNase (Amicon) to rid RNA of any contaminating DNA. cDNA was generated using Perkin-Elmer RT mix (Perkin-Elmer). ISG gene induction was measured by real-time PCR using primers and probes specific for mouse OAS, Pkr and M×1. To obtain quantitative data, HPRT real-time PCR was duplexed with ISG PCR. A standard curve was calculated using known amounts of IFN-stimulated mouse PBLs. All data are shown as expression relative to internal HPRT expression.
Results shown are fold expression relative to HPRT gene expression. […] The data shown is the average expression from 5 different animals/group.
Data shown is fold expression over HPRT expression from livers of mice. Similar data was obtained from blood and spleens of mice.

OAS = OAS activity in serum and plasma of mice (RIA)
polio virus = format: cell-based; details: Vero cells
[2] = test system: venezuelan equine encephalitis virus; format: cell-based; details: Vero cells
vaccinia virus = format: cell-based; details: Vero cells

B1: IL-29: human IL-29, previously designated zcyto21, SEQ ID NO:4 (protein, listed as Homo sapiens)
chain: MAAAWTVVLVTLVLGLAVAGPVPTSKPTTTGKGCHIGRFKSLSPQELASFKKARDALEESLKLKNWSCSSPVFPGNWDLRLLQVRERPVALEAELALTLKVLEAAAGPALEDVLDQPLHTLHHILSQLQACIQPQPTAGPRPRGRLHHWLHRLQEAPKKESAGCLEASVTFNLFRLLTRDLKYVADGNLCLRTSTHPEST
modifications: SIGNAL (1)...(19)
EC50 Visual (parainfluenza virus): >10 µg/mL
IC50 Visual (parainfluenza virus): >10 µg/mL
TI (TC50/IC50) (HHV-8): > 1.85
IC50 HHV-8 viral replication (HHV-8; extracellular HHV-8 DNA): 6.5 µg/mL
time of peak expression of ISGs after injection ([1]; C57BL/6 mice): 1 to 6 h
ISG gene expression (OAS, Pkr, Mx1) in the livers, spleen and blood of mice ([1]; C57BL/6 mice, i.p or i.v, 10 μg-250 μg): induced ISG gene expression
OAS (24 hr) ([1]; injection 10 μg): 3.7
OAS (24 hr) ([1]; injection 50 μg): 4.2
OAS (24 hr) ([1]; injection 250 μg): 6
OAS- 1 hr ([1]; mouse blood): 12 fold expression relative to HPRT gene expression
OAS-6 hr ([1]; mouse blood): 18 fold expression relative to HPRT gene expression
OAS-24 hr ([1]; mouse blood): 11 fold expression relative to HPRT gene expression
OAS-48 hr ([1]; mouse blood): 10 fold expression relative to HPRT gene expression
OAS- 1 hr ([1]; mouse liver): 2.5 fold expression relative to HPRT gene expression
OAS-6 hr ([1]; mouse liver): 4 fold expression relative to HPRT gene expression
OAS-24 hr ([1]; mouse liver): 2.5 fold expression relative to HPRT gene expression
OAS-48 hr ([1]; mouse liver): 2.8 fold expression relative to HPRT gene expression
OAS- 1 hr ([1]; mouse spleen): 4 fold expression relative to HPRT gene expression
OAS-6 hr ([1]; mouse spleen): 6 fold expression relative to HPRT gene expression
OAS-24 hr ([1]; mouse spleen): 3.2 fold expression relative to HPRT gene expression
OAS-48 hr ([1]; mouse spleen): 3.2 fold expression relative to HPRT gene expression
OAS activity in the serum and plasma of mice (OAS; C57BL/6 mice, i.v, 10 μg-250 μg): induced OAS activity
OAS-1 hr (OAS activity) (OAS; mouse plasma, 250 μg i.v., 1 hr): 80 pmol/dL
OAS-6 hr (OAS activity) (OAS; mouse plasma, 250 μg i.v., 6 hr): 80 pmol/dL
OAS-24 hr (OAS activity) (OAS; mouse plasma, 250 μg i.v., 24 hr): 180 pmol/dL
OAS-48 hr (OAS activity) (OAS; mouse plasma, 250 μg i.v., 48 hr): 200 pmol/dL
EC50 Visual (polio virus): >10 µg/mL
IC50 Visual (polio virus): >10 µg/mL
EC50 NR [2]: 0.05 µg/mL
IC50 NR [2]: >10 µg/mL
EC50 Visual (vaccinia virus): >10 µg/mL
IC50 Visual (vaccinia virus): >10 µg/mL
